Measured values: patent publication US20240117010A1 (NAVIGO PROTEINS, published 2024)

B1: 212522 (SEQ ID NO: 19) (designed binder)
chain: IAAKFDEAQQAAFYEILHLPNLTELQRNWFIQLLRDDPSVSLQVLGHAQYLNDSQAPKIAAKFDEAQQYAFYQILHLHNLTEEQRNAFIQSLRDDPSVSHEVLGEAKKLNESQAPK
B2: 212434 (SEQ ID NO: 1) (designed binder)
chain: NAAVLDIAQHSATEEIWWLPNLTKQQKVWFIMSLTQDPSVSKEVLGEAQKLNDSQAPK

Legend:
[1] = biological target: SARS-CoV2 RBD (receptor binding domain of the spike protein) (SARS-Cov-2, UniProt P0DTC2 319-541)
[2] = biological target: SARS-CoV2 S1 protein (S1 domain of the spike protein) (SARS-Cov-2, UniProt P0DTC2 16-685)

Binder | Kd [1] | Kd [2]
B1 | 27.1 nM | 24.1 nM
B2 | 10.2 nM | 3.8 nM
